Patent publication US20190127446A1
pKd: −log10 of the molar value.

Tests used:
[1] = molecular target: soluble mouse Fcγ-receptor IV (mouse); assay: SPR
[2] = molecular target: soluble mouse Fcγ-receptor IV (mouse); assay: ratio of SPR KA values
[3] = molecular target: soluble version of the extracellular domain of gp75; assay: SPR; soluble gp75 extracellular domain injected over immobilized antibody
[4] = molecular target: soluble mouse Fcγ-receptor I (mouse) (UniProt P26151); assay: SPR (Biacore), soluble receptor injected over immobilized antibody, 1:1 Langmuir
[5] = molecular target: soluble mouse Fcγ-receptor IIB (mouse) (UniProt P08101); assay: as above
[6] = molecular target: soluble mouse Fcγ-receptor III (mouse) (UniProt P08508); assay: as above
[7] = molecular target: soluble mouse Fcγ-receptor IV (mouse); assay: as above
[8] = molecular target: soluble human Fcγ-receptor IIA (131H-allele) (human) (UniProt P12318); assay: ratio of SPR KA values
[9] = molecular target: soluble human Fcγ-receptor IIIA (158F-allele) (human) (UniProt P08637); assay: ratio of SPR KA values
[10] = molecular target: soluble human Fcγ-receptor IIA (131H-allele) (human) (UniProt P12318); assay: SPR, soluble human Fcγ-receptor and human IgG isotype
[11] = molecular target: soluble human Fcγ-receptor IIB (human) (UniProt P31994); assay: as above
[12] = molecular target: soluble human Fcγ-receptor IIIA (158F-allele) (human) (UniProt P08637); assay: as above
[13] = molecular target: soluble mouse Fcγ-receptor III (mouse) (UniProt P08508); assay: ratio of SPR KA values
[14] = molecular target: soluble mouse Fcγ-receptor IIB (mouse) (UniProt P08101); assay: SPR

soluble human Fcγ-receptor IIB (human), sequence (P31994 43-217): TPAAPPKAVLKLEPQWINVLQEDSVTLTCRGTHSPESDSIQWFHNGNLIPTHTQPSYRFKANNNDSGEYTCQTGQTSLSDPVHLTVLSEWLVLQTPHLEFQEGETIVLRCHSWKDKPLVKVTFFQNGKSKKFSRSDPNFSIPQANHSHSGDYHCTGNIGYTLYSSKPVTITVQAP
soluble mouse Fcγ-receptor IIB (mouse), sequence (P08101 other isoform, or with tags, fused parts or gaps): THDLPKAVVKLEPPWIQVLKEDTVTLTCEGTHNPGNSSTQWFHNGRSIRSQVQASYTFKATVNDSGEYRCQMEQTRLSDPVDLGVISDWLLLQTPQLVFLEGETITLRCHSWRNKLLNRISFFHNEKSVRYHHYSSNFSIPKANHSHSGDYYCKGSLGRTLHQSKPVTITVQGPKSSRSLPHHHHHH
soluble human Fcγ-receptor IIA (131H-allele) (human), sequence (P12318 34-217): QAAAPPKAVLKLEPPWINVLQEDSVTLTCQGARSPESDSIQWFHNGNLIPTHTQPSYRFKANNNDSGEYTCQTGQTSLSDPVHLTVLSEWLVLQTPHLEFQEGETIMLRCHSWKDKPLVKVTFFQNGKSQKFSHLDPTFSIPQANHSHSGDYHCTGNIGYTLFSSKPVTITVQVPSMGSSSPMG
soluble mouse Fcγ-receptor III (mouse), sequence (P08508 other isoform, or with tags, fused parts or gaps): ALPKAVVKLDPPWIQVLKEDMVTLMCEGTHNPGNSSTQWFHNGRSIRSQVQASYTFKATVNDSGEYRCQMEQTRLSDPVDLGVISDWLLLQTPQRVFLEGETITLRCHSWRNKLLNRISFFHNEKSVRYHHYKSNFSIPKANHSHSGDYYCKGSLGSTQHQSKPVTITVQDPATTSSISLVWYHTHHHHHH
soluble human Fcγ-receptor IIIA (158F-allele) (human), sequence (P08637 17-208): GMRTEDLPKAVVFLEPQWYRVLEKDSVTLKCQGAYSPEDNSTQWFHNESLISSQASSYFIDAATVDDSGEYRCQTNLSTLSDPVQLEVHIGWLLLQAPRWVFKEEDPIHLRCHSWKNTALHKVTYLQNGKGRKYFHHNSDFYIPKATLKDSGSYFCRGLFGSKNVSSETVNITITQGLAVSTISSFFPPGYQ
soluble mouse Fcγ-receptor I (mouse), sequence (P26151 other isoform, or with tags, fused parts or gaps): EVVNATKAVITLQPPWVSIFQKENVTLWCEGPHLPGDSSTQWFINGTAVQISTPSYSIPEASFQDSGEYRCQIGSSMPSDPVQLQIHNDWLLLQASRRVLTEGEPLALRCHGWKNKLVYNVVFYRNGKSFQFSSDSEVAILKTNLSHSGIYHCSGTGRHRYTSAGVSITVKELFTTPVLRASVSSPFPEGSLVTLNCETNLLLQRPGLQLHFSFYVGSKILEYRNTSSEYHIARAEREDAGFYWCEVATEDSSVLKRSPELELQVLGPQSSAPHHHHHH

Substance	A/I (ratio of sFcγRIV to sFcγRIIB) [2]	Ka [3]	pKd [3]	Ka [5]	Ka [6]	Ka [7]	A/I IIA/IIB (ratio of affinity to that for FcγRIIB) [8]	A/I IIIA/IIB (ratio of affinity to that for FcγRIIB) [9]	Ka [10]	Ka [11]	Ka [12]	other results
TA99-IgG2a (fucose-containing) (antibody)	69	1.6e+09 M⁻¹	9.21	420000 M⁻¹	680000 M⁻¹	2.9e+07 M⁻¹						fold higher affinity than to FcγRIIB [1]: 10 fold; Ka [4]: 1.6e+08 M⁻¹
human IgG2 antibody isotype lacking fucose							5.3	5.7	130000 M⁻¹	26000 M⁻¹	140000 M⁻¹	
human IgG2 antibody isotype							4.5	0.4	140000 M⁻¹	30000 M⁻¹	14000 M⁻¹	
TA99-IgG2b (fucose-containing) (antibody)	7	1.8e+09 M⁻¹	9.24	2.23e+06 M⁻¹	640000 M⁻¹	1.7e+07 M⁻¹						fold higher affinity than to FcγRIIB [1]: 10 fold
human IgG1 antibody isotype							3.1	5.5	250000 M⁻¹	78000 M⁻¹	430000 M⁻¹	
TA99-IgG2a deficient in fucose (antibody)	92			3.34e+06 M⁻¹	1.54e+06 M⁻¹	3.06e+08 M⁻¹						Ka [4]: 1.8e+08 M⁻¹
TA99-IgG3 (antibody)		1.5e+09 M⁻¹	9.18									
human IgG4 antibody isotype							0.7		35000 M⁻¹	48000 M⁻¹		
TA99-IgG2b deficient in fucose (antibody)	20			1e+07 M⁻¹	1.06e+06 M⁻¹	2.03e+08 M⁻¹						
human IgG1 antibody isotype lacking fucose							3.1	76	240000 M⁻¹	78000 M⁻¹	6e+06 M⁻¹	
TA99-IgG1 deficient in fucose (antibody)				1.32e+06 M⁻¹	510000 M⁻¹							A/I (ratio of affinity for sFcγRIII to that for FcγRIIB) [13]: 0.4
TA99-IgG1 (fucose-containing) (antibody)		2.7e+09 M⁻¹	9.42	3.33e+06 M⁻¹	310000 M⁻¹							fold higher affinity than to FcγRIII [14]: 10 fold; A/I (ratio of affinity for sFcγRIII to that for FcγRIIB) [13]: 0.1
